The target of test [1] is T1, binding of IRAP-His to GST-MD364N (UniProt P97629+Q9Y613).
T1 construct: to construct plasmid pET21-IRAP (1–109); made in house; host or cells: E. coli (BL21 for GST-MD36N4)
T1 sequence (Q9Y613 951-1164): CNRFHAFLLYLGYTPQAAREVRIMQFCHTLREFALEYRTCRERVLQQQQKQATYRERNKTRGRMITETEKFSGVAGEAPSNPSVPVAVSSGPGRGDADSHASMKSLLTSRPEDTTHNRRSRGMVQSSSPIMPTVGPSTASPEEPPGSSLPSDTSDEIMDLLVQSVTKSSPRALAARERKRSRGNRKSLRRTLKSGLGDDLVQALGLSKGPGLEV
T1 sequence (P97629 1-109): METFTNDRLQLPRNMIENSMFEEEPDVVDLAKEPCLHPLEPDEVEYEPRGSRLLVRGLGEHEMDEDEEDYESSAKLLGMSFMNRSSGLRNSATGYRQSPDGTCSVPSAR
As to the kind of experiment: Binding inhibition test / screening of compounds that inhibit the binding of IRAP to human MD36. The text has this: The C terminal part (partial peptide encoded by the partial base sequence of 2995–3674 from the 5′ end in SEQ ID NO:2) of SEQ ID NO:1 (full-length cDNA of MD36) was used as human MD36. This DNA fragment was inserted into pGEX expression vector (Amersham Pharmacia) to construct expression plasmid pGEX-MD36N4 capable of expressing the human MD36 partial protein in the form fused to GST (glutathione S-transferase) protein (GST-MD36N4 protein) under control of tac promoter. However, the protease recognition site in these junctions was removed by applying PCR. Using pGEX-MD36N4, E. coli BL21 was transformed and the transformants were cultured in LB medium in a conventional manner while inducing expression by IPTG. After culture, the cells collected were disrupted by sonication followed by centrifugation of the cell homogenate. As a result, most of the GST-MD36N4 protein were present in the insoluble fraction. […]
Protein-protein binding test was carried out by the procedure shown below. […] After the wells were again rinsed 3 times with TBS-T, the IRAP-His protein remained in the wells was quantitatively assayed using anti-Penta-His antibody (Qiagen, Inc.). […] IRAP-His (1.0 μg/ml) or anti-Penta-His antibody (diluted to 2000 fold) and both were added to the GST-MD364N-coated or uncoated wells, and after washing with TBS-T, the amount of His-Tag remained in the wells was quantified. […]

For the next test, the target named is T2, profilin II (Homo sapiens, UniProt P35080).
T2 construct: expressed in transfected cells; host or cells: Saccharomyces cerevisiae Y190
T2 sequence (P35080 1-140 isoform P35080-2): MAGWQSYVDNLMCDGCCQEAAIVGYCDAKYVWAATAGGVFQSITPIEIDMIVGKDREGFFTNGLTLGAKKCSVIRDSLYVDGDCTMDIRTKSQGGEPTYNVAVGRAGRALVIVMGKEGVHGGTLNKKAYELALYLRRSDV
As to the kind of experiment: Yeast two-hybrid HIS3 growth test, MD36 and profilin family. The test is classed as cell-based. The conditions noted are these: S. cerevisiae Y190; 40 mM 3-amino-1,2,4-triazole. The text has this:
(§1) The protein-protein interaction between MD36 and the profilin family was detected by the yeast two-hybrid system. Based on pGBT9 (CLONTECH), expression plasmids were constructed to express the coding regions of profiling I (Evangelista et al., Science, 276, 118–122, 1997; Imamura et al., EMBO J., 16, 2745–2755, 1997; Tanaka, Biochem. Biophys. Res. Commun., 267, 479–481, 2000), profilin II (Schluter et al., Biohim. Biophys. Acta, 1359, 97–109, 1997), and profiling IIL in the form fused to yeast GAL4-DNA-binding domain protein under control of yeast ADH1 promoter. These plasmids were named pG-PFNI, pG-PFNII and pG-PFNIII, respectively (yeast selection marker was TRP1). On the other hand, expression plasmids that express the full-length sequence (SEQ ID NO:1) of MD36, which is IRAP-BP protein, or the coding region from this N-terminus to the sequence (SEQ ID NO:33) including the proline-rich domain in the form fused to yeast […] activated domain protein under control of yeast ADH1 promoter was constructed based on pACT2 (CLONTECH), and named pACT-MD36 and pACT-MD36NT, respectively (yeast selection marker was LEU2). pG-PFNI, pG-PFNII, pG-PFNIII or, pGBT9 for control was co-transfected to yeast Saccharomyces cerevisiae Y190 together with pACT-MD36 or pACT-MD36NT, and yeast strains bearing plasmids from the two were selected on SD medium free of tryptophan and leucine. S. cerevisiae Y190 is originally a histidine auxotrophic strain but when the introduced proteins on the plasmids show the interactions, reporter gene HIS3 is expressed and the strain becomes capable of growing on a histidine-free plate. The yeast strain acquired was spread on tryptophan, leucine and histidine-free SD medium supplemented with 40 mM 3-amino-1,2,4-triazole.

The subject of another test is profilin I. Described as above. It is filed as cell-based. The conditions noted are these: S. cerevisiae Y190; 40 mM 3-amino-1,2,4-triazole.
Excerpt: as §1

The target of a further test is T3, profilin IIL (Homo sapiens, UniProt P35080).
T3 construct: expressed in transfected cells; host or cells: Saccharomyces cerevisiae Y190
T3 sequence (P35080 1-140): T2 sequence (P35080 1-140 isoform P35080-2) with A109V, I112F, T123G, E130S, L131M, L133K, R137D, D139G, V140F
The description is as above. It is filed as cell-based. The conditions noted are these: S. cerevisiae Y190; 40 mM 3-amino-1,2,4-triazole. The protocol: Using as a template human skeletal muscle-derived cDNA and as an enzyme Pfu polymerase (STRATAGENE), the reaction was carried out at 95° C. for 30 seconds, at 65° C. for 45 seconds and at 72° C. for 60 seconds, for 35 cycles. As a result of PCR, the DNA fragment of 745 bp was found, in addition to the DNA fragment of 423 bp or profilin II, and named profilin IIL. The base sequence for cDNA of profilin IIL is shown by SEQ ID NO:29, and the amino acid sequence of profilin II is shown by SEQ ID NO:28.
The protein-protein interaction between MD36 and the profilin family was detected by the yeast two-hybrid system. Based on pGBT9 (CLONTECH), expression plasmids were constructed to express the coding regions of profiling I (Evangelista et al., Science, 276, 118–122, 1997; Imamura et al., EMBO J., 16, 2745–2755, 1997; Tanaka, Biochem. Biophys. Res. Commun., 267, 479–481, 2000), profilin II (Schluter et al., Biohim. Biophys. Acta, 1359, 97–109, 1997), and profiling IIL in the form fused to yeast GAL4-DNA-binding domain protein under control of yeast ADH1 promoter. These plasmids were named pG-PFNI, pG-PFNII and pG-PFNIII, respectively (yeast selection marker was TRP1). […]

Positions count from the first letter of the chain named. Where no end group is shown, it is not given here.

Regarding “IRAP (55–82): chemically synthesized biotinylated peptide, amino acids 55–82 from the N terminus of SEQ ID NO:11 (IRAP) (VRGLGEHEMDEDEEDYESSAKLLGMSFM; also: biotinylated; listed as Homo sapiens) [reference compound]”, the “inhibition of the binding of IRAP-His to GST-MD364N” value in test [1] (biotinylated IRAP (55–82) peptide added, several amounts (μg/well)) is given as “inhibited”.

Turning to `O=C(O)c1cc(O)c2c(c1)[C@@H]([C@H]1c3cc(C(=O)O)cc(O)c3C(=O)c3c(OC4OC(CO)C(O)C(O)C4O)cccc31)c1cccc(OC3OC(CO)C(O)C(O)C3O)c1C2=O` (some centres unmarked) [Compound 1], the “binding inhibition (reduced amount of His-Tag remained on the plate)” value in test [1] (library compound in DMSO, final concentration 1 μM) is on record as “exhibited binding inhibition”.

B1: MD36NT: MD36 from the N terminus to the sequence including the proline-rich domain (SEQ ID NO:33) (protein, listed as Homo sapiens)
chain: MAGGEDRGDGEPVSVVTVRVQYLEDTDPFACANFPEPRRAPTCSLDGALPLGAQIPAVHRLLGAPLKLEDCALQVSPSGYYLDTELSLEEQREMLEGFYEEISKGRKPTLILRTQLSVRVNAILEKLYSSSGPELRRSLFSLKQIFQEDKDLVPEFVHSEGLSCLIRVGAAADHNYQSYILRALGQLMLFVDGMLGVVAHSDTIQWLYTLCASLSRLVVKTALKLLLVFVEYSENNAPLFIRAVNSVASTTGAPPWANLVSILEEKNGADPELLVYTVTLINKTLAALPDQDSFYDVTDALEQQGMEALVQRHLGTAGTDVDLRTQLVLYENALKLEDGDIEEAPGAGGRRERRKPSSEEGKRSRRSLEGGGCPARAPEPGPTGPASPVGPTSSTGPALLTGPASSPVGPPSGLQASVNLFPTISVAPSADTSSERSIYKLHQTASVWAPESPPVPQSPPGQARLEARFLENVAAAETEKQVALAQGRAETLAGAMPNEAGGHPDARQLWDSPETAPAARTPQSPAPCVLLRAQRSLAPEPKEPLIPASPKAEPIWELPTRAPRLSIGDLDFSDLGEDEDQDMLNVESVEAGKDIPAPSPPLPLLSGVPPPPPLPPPPPIKGPFPPPPPLPLAAPLPHSVPDSSALPTKRKTVKLFWRELKLAGGH
Regarding B1, the figures for the “growth of yeast on tryptophan, leucine and histidine-free SD medium” value with profilin II, with profilin I and in the test with profilin IIL were “did not grow”, “did not grow” and “Growth of the yeast was noted”, respectively.

The record behind these values is patent US7064106B2, “Gene and use thereof” (Takeda Chemical Industries, Ltd., priority 1999, dated 2006).
